Reference: patent publication EP3573716B1, “BIOLOGICALLY ACTIVE FUSION PEPTIDE FOR USE IN THE TREATMENT OF SPINAL MUSCULAR ATROPHY (SMA)” (Istituti Clinici Scientifici Maugeri Spa Società Benefit, priority 2017, dated 2026)

Tests used:
[1] = system: Smn knock-down NSC-34 motor neuronal cells (sh_Smn_519-FM5S clone); assay: Neuritogenesis and neurite outgrowth (morphometric analysis, β-tubulin III immunostaining) in Smn knock-down motor neuronal cells; assay type: cell-based, mouse
Protocol: (§1) The psiRNA-hH1neo G2 (InvivoGen) and sh_Smn_519 (Shafey et al. Hypomorphic Smn knockdown C2C12 myoblasts reveal intrinsic defects in myoblast fusion and myotube morphology, 2005, Exp Cell Res 311:49-61) constructs were transfected into the NSC-34 cells using FuGENE HD Transfection Reagent (Promega) according to the manufacturer's instructions. Forty-eight hours after the transfection, cells were subject to drug selection with 1 mg/ml G418 (Sigma-Aldrich) to obtain stably transfected cell lines. Two weeks after the transfection, single clones were picked and expanded in a DMEM/10% FBS/G418-based medium to obtain the psiRNA and sh_Smn_519 NSC-34 clonal cell lines, respectively. To induce differentiation, clones were maintained in culture with differentiation medium (DMed) (1:1 DMEM plus Ham's F12, 1% FBS, 1% penicillin/streptomycin, and 1% modified Eagle's medium nonessential amino acids; see 48).
Twenty-four hours after plating, psiRNA and sh_Smn_519 NSC-34 stable clones were treated with various concentrations of transducible fusion protein/peptide (3 hours). Protein/peptide in excess were subsequently removed and cells were maintained in culture in DMed for 24 and 48 hours. Cells were then fixed and stained, as described below. Neurite outgrowth and/or cell death were subsequently analyzed (see "Immunocytochemistry") .
For immunostaining, cells were incubated for 1 hour with a blocking/permeabilizing solution (5% Serum, 0.1% Triton X-100, in PBS) at room temperature. To evaluated neurite outgrowth, cells were immunostained using a mouse antibody to β-tubulin isotype III (Sigma-Aldrich). Neurite length was measured according to a protocol previously established in our laboratory using ImageJ software (National Institutes of Health) and NeuronJ plug-in. Briefly, only processes as long as twofold the average cell body dimension were considered neurites and measured. […] A total of about 100 cells per group were analyzed. […]

[2] = system: Smn knock-down NSC-34 motor neuronal cells (sh_Smn_519-FM5S clone); assay: Apoptotic cell death (cells with condensed nuclei, Hoechst 33342) in Smn knock-down motor neuronal cells; assay type: cell-based, mouse; details: 48 hours after the switch to DMed
Protocol: as §1, with “To induce differentiation, clones were maintained in culture with differentiation medium (DMed) (1:1 DMEM plus Ham's F12, 1% FBS, 1% penicillin/streptomycin, and 1% modified Eagle's medium nonessential amino acids; see 48).” left out
Twenty-four hours after plating, psiRNA and sh_Smn_519 NSC-34 stable clones were treated with various concentrations of transducible fusion protein/peptide (3 hours). […] Neurite outgrowth and/or cell death were subsequently analyzed (see "Immunocytochemistry") .
Cells were rinsed in phosphate-buffered saline (PBS) and fixed in 4% PFA for 20 min. […] The number of cells showing condensed nuclei was counted as previously described.
Subsequently, the neuroprotective activity of the two peptides was evaluated. […] Forty-height hours after the switch to DMed, the impact of the two TAT48-57-fusion peptides towards cell death was determined in terms of reduction in the number of cells with condensed nuclei. […]

B1: TAT48-57-SMN^235-294: fusion peptide of carrier peptide TAT48-57 (SEQ ID NO: 1) and SMN^235-294 carboxy-terminal domain (SEQ ID NO: 29) as active peptide portion (peptide, listed as Homo sapiens)
chain: GRKKRRQRRRPFPSGPPIIPPPPPICPDSLDDADALGSMLISWYMSGYHTGYYMGFRQNQKEGRCSHSLN
modifications: HIV-1; Fragment of the full-length human SMN protein, i.e. the SMN235-294 carboxy-terminal domain
With B1 the “diminished the number of sh_Smn_519-FM5S cells without neurites” value ([1]; 10 nM, versus untreated sh_SMN_519-FM5S cells, 24 hours after the switch to DMed) was roughly 40%, the “concentration with significant effect on number of cells without neurites and mean length of the longest neurite per cell” value ([1]; sh_Smn_519-FM5S clone, 3 hours pre-incubation, then differentiating conditions (DMed)) was “above 10 nM” and the “increased the mean length of the longest neurite per cell” value ([1]; sh_Smn_519-FM5S clone, apparently 10 nM, versus untreated cells, 24 hours after the switch to DMed) was 30%. For the same molecule, the “diminished the number of cells with condensed nuclei” value ([2]; 100 nM, sh_Smn_519-FM5S cells, versus untreated cells) was roughly 45% and the “concentrations significantly protective towards apoptotic cell death” value ([2]; sh_SMN_519-FM5S cells) was 1 to 100 nM.
